Here are results for 2 substances from publication PMC8262862.

Targets include B-Phuket HA; H1 HA; H10 HA; H13 HA; H14 HA; H2 HA; H3 HA; H5 HA; H6 HA; H7 HA; H8 HA; H9 HA.
Experiment in all cases: ELISA
For orientation: ELISA stands for enzyme-linked immunosorbent assay.

A word on the Kd: it is the concentration at which binding is half-saturated. Read a low Kd as higher affinity.

Bounds are passed on as bounds.

CR8033 yielded a Kd with B-Phuket HA of 0.11 nM.

With FI6v3, the Kd with B-Phuket HA is more than 100 nM; with H1 HA, 0.29 nM; in the assay with H10 HA, 9 nM; in the assay with H13 HA it was 1.5 nM; with H14 HA, 0.38 nM; with H2 HA, 0.3 nM. In addition, the Kd with H3 HA was determined as 0.23 nM; with H5 HA, 0.25 nM; with H6 HA, 0.47 nM; with H7 HA it was 0.34 nM; in the assay with H8 HA, 0.24 nM; with H9 HA, 0.48 nM.
